Data published in patent publication US20240026407A1, “MODIFICATION OF SAPONINS” (GLAXOSMITHKLINE BIOLOGICALS SA, priority 2020, published 2024).

Tests used:
[1] = Experiment 4-2: screening of glucosidases for deglycosylation with purified QS-18 (1 mg/ml) at pH 6 and 30 deg C; type: biochemical, Quillaja saponaria; settings: pH 6, 30 degC, 18 hrs, clarified lysate, LCMS/MS
Description: Lysates were prepared in an identical manner to Experiment 4-1 above, except the lysis buffer was prepared in 100 mM potassium phosphate buffer pH 6. QS-18 solution was prepared by dissolving QS-18 in 100 mM potassium phosphate buffer pH 6 (2 mg/mL).
12 uL clarified lysate was transferred into fresh 96 well PCR plates. 12 uL QS-18 solution was added (1 mg/ml final concentration), plates sealed and incubated overnight (30° C.) for 18 hrs. After quenching with 25 uL MeCN and shaking for 10 mins (RT), samples were analysed using the LC-MS/MS protocol described in Experiment 4-1 and enzyme activity determined in an analogous manner.

[2] = Experiment 4-1: screening of glucosidases for deglycosylation with purified QS-18 (0.04 mg/ml) at pH 7.5 and room temperature; type: biochemical, Quillaja saponaria; settings: pH 7.5, room temperature, 20 h, clarified E. coli lysate, QS-18 2150 to QS-21 1988 by LCMS/MS
Description: Nucleotide sequences were sub-cloned into pET24b+ for expression. 10 uL of E. coli cells (One Shot® BL21(DE3) chemically competent E. coli) were transferred to each well of a 96 well PCR plate (prechilled on ice). 10 uL autoclaved water was added to the DNA, resuspended by pipetting, and 1 uL of plasmid DNA (15-30 ng) was transferred to the competent cells. Immediately after addition, the resulting mixture was mixed by pipetting. Cells were heat shocked by placing the plate in a thermal cycler at 42° C. for 30 seconds then transferred directly to an ice bath for 2 min. 100 uL sterile Lysogeny Broth (LB) medium was added to each well containing transformed cells. The content of each plate was transferred into a 96-deep well plate pre-aliquoted with 400 uL LB and the plate was incubated at 37° C. with shaking and 85% humidity for 1 hour. After outgrowth, 500 uL of sterile LB containing 100 ug/mL kanamycin was added to the plates containing cells and plates incubated at 37° C. with shaking overnight (18 hours) with humidity control (85%).
1000 mLs of Overnight Express Media was supplemented with 1 mL kanamycin 50 mg/mL and 20 mL of 50% v/v glycerol added (50 ug/mL kanamycin final and 1% glycerol). 96-Well Assay Block 2 mL plates were aliquoted with 380 uL of media per well. Pre-inoculum (20 uL) from transformation plates was added. The plates were sealed appropriately and incubated at 37° C. at 300 with shaking for 2 h. After 2 h the temperature was lowered to 20° C. and incubation continued for 20 h.
The liquid cultures were centrifuged for 10 minutes at 4° C. The supernatant was discarded, plates blotted on an absorbent material to remove residue and the plates frozen at −80° C.
Lysis buffer was prepared according to the following protocol: • 1. Polymyxin B sulphate (0.5 mg/mL) was suspended in 100 mM potassium phosphate pH 7.5 • 2. The mixture was sonicated until polymyxin B sulphate had dissolved • 3. Lysozyme (1 mg/mL) and benzonase (0.1 uL/mL lysis buffer) were added
2 copies of each cell pellet plate were removed from −80 degC freezer and allowed to thaw. 200 uL of lysis buffer was added to each well of one copy of the cell pellet plates. Plates were shaken at room temperature for 10 mins. 190 uL of cell pellet/lysis buffer was transferred to a corresponding fresh cell pellet plate. These plates were incubated at room temperature with shaking for 2 hours. Lysate was clarified by centrifugation (10 min, 4 degC).
QS-18 was obtained by analogous methods to Example 3, collecting a QS-18 containing phenyl fraction following phenyl treatment (presence of m/z corresponding to key components was confirmed by MS and the phenyl fraction then used without further treatment). QS-18 solution was prepared by diluting aqueous QS-18 (ca 1 mg/mL) with 100 mM potassium phosphate pH 7.5 to 0.2 mg/ml. 40 uL clarified lysate was transferred into fresh 96 well PCR plates. 10 uL QS-18 solution added to each well of lysate to a final concentration of 0.04 mg/ml. Incubated at room temperature with shaking for 20 h. Quenched with 50 uL MeCN and shaken at room temperature for 10 mins. Samples were analysed by LC-MS/MS using a Waters Acquity H class coupled to a Waters Xevo Tandem Quadrupole (TQD) Mass Spectrometer.
Enzyme activity was calculated as: […]
Candidate enzymes with % conversion >0.72%, i.e. >3 S.D. above negative control, were considered to be positive hits and are listed below in Table 7. Sample results are shown in FIG. 10 for a QS-21 standard, FIG. 11 for negative control and FIG. 12 for treatment with the glucosidase of SEQ ID No. 262.

Molecule | Expt 4-2 % conv [1] [%] | Expt 4-1 % conv [2] [%]
32 (protein, uncultured Clostridium sp.) MSIRLTDKASVPAVVAEMTLEEKARLVTGEFPFTTAGIKRLGIPPMRPLDGHTGINMGQLRSDMASKTLANKSVDELGEMSGPAISGFGTVITNAKDPAKRAKMAPSIQKLVQEVLDKVDELMPDGMYPGCFPPGIMQGSTWNPEVIEKEGSAVGKEMDAYKVDVCLGPNVNIHRDPLNGRLFEGYSEDPYVTATLAPYYIRGMQAEGVAADAKHFAANNQETHRQEIDERIPLRALYEIYLPGFKAAVQQGKVKTLMSAYNKINGTACALNHWLLTDVLRGEWGFEGFVVSDWGAVYDQVDAINAGNDLEMPGPLTFDKIVAAVKDGRIDEKTLDQRVANYLNVLVELPVMKGRKNAHIDREYSRKAAYDVAAEGSILLKNEGALPLNEGAKISLIGEHAKDYIICGKGSAFIDTDQATNLYDCAVETLGADKVEYGDVSADSDAAIIVVSVDGQEGSDRADLLLAPGDDQMILDAAKKAHANGKKAIVILNVTGPVEMEGWLDQVDAVLCVWLPGMEGGRATLDILTGKVNPSGKLTLTFPKHYYDCPTYGNFPGDGDEVWYGEGIYVGYRYYDKKHVEPLYPFGYGLSYTTFELSDIAIDRDVMDMDKGETVNVSVKVTNTGKVAGKEVVQVYISDEVSTLSKPLKELKGFQKVALQPGESKVVTIAIGKDQLASYDPAAKAWGSEPGYYQALVGTSSRDIAGAVRFKAVGYNPFGYGVNCSIGKIMANPAVVEAMKKYIPAHLLSDESMSSELTYFPEAKLQKIWNEKFSLAFKDKSETEKQAILDAMCAEIAKIEVI | 0.6 | 2.2
41 (protein, listed as Ardenticatena maritima) MKGARMQDRVETLLQSLTLDEKIKLLAGADTWHTHAIPRLGIPALKVTDGPNGVRGTQKDTRSQTSASFPVGTAMGATWNPDLVREIGEALAEEVKTKGAHVLLGPTVNMHRHPLAGRNFECFAEDPYLMARMAVAYIQGVQSQGVGACIKHYVCNDQEFERFSISAEVDERTLREIYLPPFKAAVQEAGVWTLMTAYNRVNGVYASENSHLFDILKDEWGFDGLALSDWYGTYSDRVPLERLDLEMPGPGRWMAPEKVRAALERGEITEADIDDKVRRLLRTLERVGAFEDSAPKEERSVDNPRHHEIIRRAGREAIVLLKNEDNVLPLDASRFPRLAVIGRPATEVSFQGGGSSEVNPHYVVQPLDAMRERYGEAFQMTYALGPAFYRNFPLLDTRGLRAEDGTPGKVTVRQYDNTELEGEPSKVFLAEGTQLAWFGEQISEFDLRSFSLTMSGTWTPPVSGTYTFSMATVGRGRFEFDGKTLLDWWEYIPEEQPQNFDGMVSVPWRQEEVTLELEAGREYPFRVDFAVVPGGRWRTIRLGVLPPQPADPIGEAVALAREADAAVVFVGLTPEWESEGSDRESMDLPGEQNELVARVAEANPNTIVIVNAGSPVHMPWLDKVKAVLQVWYLGQEMGNAITDVLFGEADPGGRLPTTFPKRLQDSPAYINYPGENGRVYYGERLYVGYRYYDKKEIEPLFPFGHGLSYTTFSYDALELAADQVRVGEGVDVHVTITNQGARRGQEVVQVYLHDVESSLPRPPKELKGFAKVTLEPGETRTVTIHLRPDAFAFYDDKRGAWVVEPGAFEVLVGRSAADIRLRARLDIVDKTTEALEAGNVLAG | 0.7 | 4.0
